Where “and” joins values, the source holds several entries; their conditions need not be identical. Identical values can stand only once.
Biological target: α7/5HT3A chimaeric receptor (control, non-mutant)
Test: radioligand binding

125I-labelled α-bungarotoxin (from UniProt P60615 22-95) (natural protein)
Kd: 11.5 nM and 12.2 nM and 8.1 nM
